Test results taken from the DeepSol protein solubility set.

Assay: soluble on expression in E. coli; label from the status in PepcDB or PDB records
In the case of “MGSDKIHHHHHHMVVLAPHIEWLMETVHIISGLNDGGAEAVLYRLCSSDKAAEHYVISLMDEGKYGALLREAGVQVSCLSMPRGRVTLGGLWRLWRLLRQIRPQAVQTWMYHADLVGGLIARLAGVKQVFWGIHHTTLHAGQSRRSTIWVARLCARISSCLPSAIICCAQKALEAHRELGYAAEKLRVIPNGYDLVRFRVDEDARVRLRTEWNTGSRWLIGMVGRFDPLKDHKNLLDALAIVKYRGVDFCCVLAGRGLDQNNAQLMAWLTELDLAGEVKLLGQRMDIPDVMNALDVHVLSSSSEAFPNVVAEAMACGTSVVTTNVGDAALIVGETGWVVPARNPGMLADALLQAYVAMHDEAAWQVRCTAVRQRVEDHFSLERMVENYHLVWQNKL”, the “soluble on expression in E. coli” value is reported as “not soluble”. In the case of “MGSDKIHHHHHHMVVRGRLKGVEAEFIDFHVHMPYWIRDPVKSCRRLLLEELTAGAISAVVIGVDASLETIKSRVTPREITEAAMEDFDYLAFQQVGYIGRMIMEPEKFLDDFLGDFHKHRRGPEDLRACRSVEPRFFYTIVSYKPGMEEEVAQIVRSDSSILGVKIFPTFHFTRPDSQRLYPVYKAVEEAGGLVVVHTGCDPGPWELTRFCREARPSYVARAAKRFENLVFVIAHLGAYSALKPGIYFEETLKALSLENVYADTSAADPFFAAMAVKEGYADKILFGSDYPYVSGYNVAMAVKDILSLDIDNNDKEAVLRYNAEKLLNSLPRGRQKPG”, the “soluble on expression in E. coli” value is reported as “not soluble”. For “MGSDKIHHHHHHMWTEIDTQISRVTGERFQSQQRRSVSGGCINQGYAVADGTLTYFVKLNQASQVAMFEAEALGLEQMLTTNSIRVPKPICWGIAGNSGYIVLEWLEMGSGNTNSWEEMGRNLAKMHKATSQKGYGWDMNNTIGSTPQINTWTEDWTEFYSKHRLGYQFQLARRRGGSFPKQDELLGALPELLADHEVQPSLVHGDLWGGNAGCTVSGEPVIFDPATYFGDREVDIAMTELFGGFPAAFYKGYNQVFPLDAGYEKRKTLYNLYHILNHFNLFGGGYASQANRMIEQILR”, the “soluble on expression in E. coli” value was “not soluble”. In the case of “MGSDKIHHHHHHMWTSKQQQALDHLAATPSLLVVSDFDGTLAGFSHDAMQVPVNHVAMAALQQLTSLPSTRVALLSGRDVQGLIQVSGAAAPMIVAGSHGAESTEGGLVLNEDQQAALSAVTAALEEIATSVPGAFVEHKPYHRVLHVIRVADQQRARAALDRALALEIPGAKIAEGKWIAEASVVDFTKGTWIKAAQEQYRPSVTLFLGDDTTDENGFAVLGCNDVGIKVGAGDTCATVRLESIDRVGQFLSSLADARSAAQQ”, the “soluble on expression in E. coli” value is reported as “not soluble”. In the case of “MGSDKIHHHHHHMYHEFTPCAALVPFIDKFWVFKGFTDIGTRFKILADGCTDFIFSIGNMTVPTDEHSMIMQPYRSFFVGPMRSYSNLTATTDSLHMLGVRFQPCGLAAFTNEPLGQFADLRIQSSDINLLFDNSFAEMLCEQPDDSVRIRIIEGYLIRLLTQSIQVDRQIIYATSFIKQSYGQLPVQNLIDKICICQRHFQRKFKDATGYTPKEFSRIIKFQYAIEVLRNAPHTDLSSIALDCGYYDHSHFIKEFKRLAGDVPSYFLTLPNPADEPLTYI”, the “soluble on expression in E. coli” value is reported as “not soluble”. With “MGSDKIHHHHHHMYKINIIRSDSVYKNILKAPINDRDSIFTKEILVPFKKKFEVQHMPIYNDDKQTMSAIQFLDAFQISPKDLRMSDQMSIQYLNNDFWSNCEKYLKVAIDQFSNYSISSQVSNYHFTVLLGDSQKPLMYLNKNRGGDGGIPGYIMIYLVPSTSTINSMKSLIAHEVNHNMRYQYIDWDGGSLIELIIAEGLAENYVESLYGKAHIGPWVTNTNWSRDNVKIKNTIYNHLHLKHIFESMPYLYGDDINKLQGRPIVGLSHAAGYACGYHLVKYFLQKTNIPIEVATTLPAQKIINEVTEFWHTHTL” the “soluble on expression in E. coli” value was “not soluble”. For “MGSDKIHHHHHHMYSFVARQPILNQHRQTVAYELLFRMDITNKFPDVSPEFATAQLISDQFLTNPLARSVVEQPYYINFPHQMLINGQAEVLPQEKVVIEILENAAPDNDLFAAVKKLKRKGFKIALDDFSMDSEWDRFLPYIDVIKFDLTLSTFGDIENFIKRTKQRKLIYLAEKVETHEQYMQSKKLGISLFQGYFFSRPEMIKSKKLVNKSSNTIRLLREVNKPEINYAAIEELVCADLSLYYKLMRHITNIKYNTRFGITATSMSFRSMAMLLGQRELKRFVSLISITNSNENKPSELYRTSLIRARFFELLYASFNVKEDTTEAFLCGLLSLLDAVLDSPMPLLLSQIALSEKINQSLLENTGELAVYLTLIAKYEQQEWEELERLLIQLGIDEENFFTMIMEATQWADEIL”, the “soluble on expression in E. coli” value was “not soluble”. For “MGSDKIHHHHHHMYTFTNQFISNDKNVEFLKAAMMGPNAMRLAEELSSHLNIDETMRILDLGCGCGLSTLLLTKKYGASVFAADLWISPTENYERFQSLGIADKAVPISVDATKGLPFAKGYFDLLFTVDAYHYFGDTAAMLPSLIPFVKKGGYIAVAIPGLNYEFEDKVPDEMQPFWNSEMARTLHSLDWWKDLWKKAEGIEMVDSREMACCREAWQEWLTAYHPIVAEDIKMMAAEDGKYFNLVQLIAKVL”, the “soluble on expression in E. coli” value was “not soluble”. With “MGSDKIHHHHHHMYTIAIDLGGTVVKIGLLSDGEIVDCVRLPSRLALGLALNLPKIKEAIDRLLAAWRIDVAALRCIGLAFPGLVDPIHNRVISTNEKYDDACSISLDKWAWENWEVPFCMDNDARLAVAGEWWQGAARGKNNVVMMTIGTGIGTGVVIDGRLLYGQHFQAGSLGGHFVLDYKGRRCSCGNKGCVEALSSSFFLPTIIREHALLSESFKRDADIYDFKRIFRLAQEGNTDALLIRNECMDIWASAIITYIHAYDPEVVILGGGILKSQEVIIPYISKRVDELAWCPSGKVPVVPAILGDDAALFGLEYFMVKQQQNERICI” the “soluble on expression in E. coli” value was “not soluble”. With “MGSDKIHHHHHHMYVTSQIHAKGSDLAKLMQIAALKGNEEVLDVATGGGHVANAFAPFVKKVVAFDLTEDILKVARAFIEGNGHQQVEYVQGDAEQMPFTDERFHIVTCRIAAHHFPNPASFVSEAYRVLKKGGQLLLVDNSAPENDAFDVFYNYVEKERDYSHHRAWKKSDWLKMLEEAGFELEELHCFHKTFIFEDWCDRMNVTTEKKQELSDFIKSKPTEYYQKFKIVVEDGRVYSFRGESILMKARKPTVKNKGSS” the “soluble on expression in E. coli” value was “soluble”. With “MGSDKIHHHHHHMYYRPADGHGLPHNPFNAIVSPRPIGWISTRGEGGGDNLAPYSFFNAVAYEPPQVMFSSTSAKEDRGDTKDSVANIRETGVFCVNIVEYAARDAMNETSGPWPATEDEFQRAGIERADCTEIPCSRVASAPANLECRVTQIIKLEGAHNFAVFGEVVGVHIRDDVLVDGHFDVTRFNPLTRMGYRDYSVIRDVFSLKRPGE” the “soluble on expression in E. coli” value was “not soluble”. For “MGSDKIHHHHHHNFDDLLQLLEIHSRVFDVTPPSTGTVGSMRYLEYNGHVLANVEDLYILDNNKLPSPGVPVETLKLFGVDYIQTGDGVKIITCRVNSIEEIGKTVVVNFEGEKNFDVEQTQNSVRIIAKDWLLFRGVVKMPEEVLYEKENVRIERTAESDGQFRILLSAESVGKYVVKPFGERVDPYEKDVVFLVGYGDGRIIVRSFSKDLNGLDLPAYSESLKLARKIANELGYKLEECPVYDIPVGVIGMIVLLKGKDEMPVFLNTVERLMAE”, the “soluble on expression in E. coli” value was “not soluble”. In the case of “MGSDKIHHHHHHNTEQQLDSEVSEPTKTMRSQQHSDGAAAITHLTPLDLPLDSQGLTDEDSQQINSLLNQLHESAMSADWDTYFDLYHPDAAFIGTDATERWNMVHFRRYASPTQGWRYDLQARHLLQIEDVVVFDEQLYSPEYGISRGTGALVNTTKGWKIAQYHLSFPIPNAKAKRITTLIKQ”, the “soluble on expression in E. coli” value is reported as “not soluble”. In the case of “MGSDKIHHHHHHPEKKVATSVPAPQKMDGEQLFEDMQLGGVVNFLAFRQAVAGYNLIKQKSKSILTLIDFTKPSTEKRLFVFDMEQKKMLYSSVVSHGKNSGENYATSFSNEVGSYKSSLGFYLTGNTYQGRNGYSLLLDGLEKGINDRARERAIVVHGAAYANPSVCKSGRLGRSFGCPALPQALTKPIINTIKGGSVLFIYANNKEYMAKSSILPNQTSQELFTEACESEQTVSVHL”, the “soluble on expression in E. coli” value is reported as “not soluble”. In the case of “MGSDKIHHHHHHSEDTMDRINKDHDHTTSVASRFILADVITSTAFSNASGDINTYASSYIEYEVGVDNQLYYAEVRENEPSSSSTFNNSWNGIYSSLKNARIIIDQCGEGGRDHGNDVTRGMAEVMAAYNCALIADFFGDAPCSQAALVDEKGSPVYMTPKMDTQQEIYTQIISYLDDAIANLQKEDLADVTEQDFLYAGDADKWLKFAYGLKARYTMRLINRSSNKSADYEKVLDYVSKSFTSADDQAAFDIYDSNNINPFYGFYNSRAGFGASTSLGTKLLAYNDPRANRAFFTPIVDKKRSQVAANDPSLVPAPNGSPDQSTSKYGISAFVYAKTAPTLLMSYHELMFLKAEALCRLNRDAEDALKEAVVAGLLNAENSISIAIKELGSGLNTNSSEVITETSAGKYFDDVVKAKYAANPLQETMIQKYLAMWGASGEATETYNDFRRMKGLNENFITLTNPNNSSKFPLRYPYGNSDTAANPEVKAAYGNGDYVYSEPVWWAGGSR”, the “soluble on expression in E. coli” value is reported as “not soluble”. For “MGSDKIHHHHHHVAKVPQRKLLLSEIQLGMRVKLPLSWTNHPFLFNRVDISSAAQIEMIRGLGVPYVLLLSELNPASEVVEEDENVEDEIAAEPERDLKADTRKAIRLSQKRFLENVNNCRNVFGKIVSDPEGAYRLSAALVEDLLSHLQEVEKPFLTLVGMDDSDVSVTQHGVSVAVLAMMMGHALDLSPRELRDIALGSLLHDIGKLKVPDVIRRKRGALTPHEANYLQMHPNFAYDMLNRSGLFPKEVLHIVLHHHEFIDGSGFPDGLTDHKIPITTQIVSLANDYDQQLSGQQISSPQVALGYLFKNRATKHAESLIAILVKILGIYPPGTIVRLSDDSVAKVMMTTKEVSQPQVWACKEDGSEASLRFLSDEGVTVQKAIKAEELSEGAIRTLQVDKGVSFYFSSLQT”, the “soluble on expression in E. coli” value was “not soluble”. In the case of “MGSDKIHHHHHHVCSELAKDVPTNMSIKMPSLTPSSLSSLIPSSVPSEVQNVQGKDCMKEAIGADKIARQFSQAAKHYQEHDKVQRLSAQRLRTKMTPIGRLLDIGCGPGTDFSAAPGLNEVLGLDIAPGMLSQMLESFPSYKALCGDAQALPLSDASIDTLYSNLALQWCSDIKTAIGELARVLKPGSQCHLAIVVDGSLSELDALGLRVNAFEQAQTLLDGFSDSHWQIEHHSVEPLRVHFDDLKTLLYSIKGVGASAAMGSDVSQGSDVTQDSDASHGPDDTQGSVSKPPPRLRGRQDWLALCERAEKMRQPEGLPLTYQILFIHASRRG”, the “soluble on expression in E. coli” value is reported as “not soluble”. With “MGSDKIHHHHHHVDLSVMNRKRSESFNEVAEIYDAARPSYPSQLIEDVIEMANLTDSASILDIGTGTGKGTVPFAEKGYAIYCLEPGERLIAIASQNMRLYPKVIFETVTLEDWNLRPSAFDLAISAQAFHWVNREKGYPKVAQALKEKGYIAFFWNFSILPDTSIFQALKETFQKYVPTISNAKPSSVESLIKKRENWILNSFYFKNLVVKKYPWSINYDAEGYLGLLKTQTAYQKFTGTEKQDFSDAIIQILNAHGGYVTKPYLSVLFFAQKI” the “soluble on expression in E. coli” value was “not soluble”. In the case of “MGSDKIHHHHHHVESLLTAADLHIHTTASDGTASPEAVLSYVATETDLRVIAITDHDTLRGALYARERASHYGIDVIVGCEISTRSGHLLALFIEQPVPAGLSVTETVARIHDQGGMAFAAHPFGMLVPSIGRRHLLGPERTDVDWMQLDGIEVFNASLWNPMNNERAARCAQRWGLTHIGGSDAHNLTMIGAGRTLFAGTGAADLRRALQRRATLVHGRYWGWRGVAGVVRERVWRQFGRPVESVS”, the “soluble on expression in E. coli” value is reported as “not soluble”. In the case of “MGSDKIHHHHHHVGCMKWDYGKMEPFRATGDGLFIMNEGNFQYGNATLSYYDPETKKVENEIFYRANAMKLGDVAQSMIVRDTIGWVVVNNSHVIFAISTNTFKEVGRITGLTSPRYIHFISDEKAYITQIWDYRIFIVNPKTYQITGYIECPDMTMETGSTEQMVQYGKYVYVNCWSYQNRILKIDTTTDKVVDQLTVGIQPTSLVMDKNFKMWTITDGGYKGSPYGYEEPSLYRIDAETFKIEKQFKFQLGDAPSEVQLNGAGDELYWINKDIWRMSVDEERVPVRPFLKYRDTKYYGLTVSPKNGDVYVADAIDYQQQGMIYRYTEDGELVDEFYVGIIPGAFCWK”, the “soluble on expression in E. coli” value is reported as “not soluble”.
